Patent US20180030109A1
Each block holds one substance with its values, some of them ahead of it.

Assays:
[1] = target: MUC16 (CA125), native, membrane-bound on cancer cells (human) (UniProt Q8WXI7); experiment: cell-based or functional assay
[2] = target: MUC16-targeted mesothelin-TR3 fusion protein (Meso-TR3) (human); experiment: cell-based or functional assay
[3] = target: MUC16 (CA125), native, membrane-bound on cancer cells (human) (UniProt Q8WXI7); experiment: flow cytometry on OVCAR3 cells, anti-FLAG detection

Sequence of MUC16-targeted mesothelin-TR3 fusion protein (Meso-TR3) (chain): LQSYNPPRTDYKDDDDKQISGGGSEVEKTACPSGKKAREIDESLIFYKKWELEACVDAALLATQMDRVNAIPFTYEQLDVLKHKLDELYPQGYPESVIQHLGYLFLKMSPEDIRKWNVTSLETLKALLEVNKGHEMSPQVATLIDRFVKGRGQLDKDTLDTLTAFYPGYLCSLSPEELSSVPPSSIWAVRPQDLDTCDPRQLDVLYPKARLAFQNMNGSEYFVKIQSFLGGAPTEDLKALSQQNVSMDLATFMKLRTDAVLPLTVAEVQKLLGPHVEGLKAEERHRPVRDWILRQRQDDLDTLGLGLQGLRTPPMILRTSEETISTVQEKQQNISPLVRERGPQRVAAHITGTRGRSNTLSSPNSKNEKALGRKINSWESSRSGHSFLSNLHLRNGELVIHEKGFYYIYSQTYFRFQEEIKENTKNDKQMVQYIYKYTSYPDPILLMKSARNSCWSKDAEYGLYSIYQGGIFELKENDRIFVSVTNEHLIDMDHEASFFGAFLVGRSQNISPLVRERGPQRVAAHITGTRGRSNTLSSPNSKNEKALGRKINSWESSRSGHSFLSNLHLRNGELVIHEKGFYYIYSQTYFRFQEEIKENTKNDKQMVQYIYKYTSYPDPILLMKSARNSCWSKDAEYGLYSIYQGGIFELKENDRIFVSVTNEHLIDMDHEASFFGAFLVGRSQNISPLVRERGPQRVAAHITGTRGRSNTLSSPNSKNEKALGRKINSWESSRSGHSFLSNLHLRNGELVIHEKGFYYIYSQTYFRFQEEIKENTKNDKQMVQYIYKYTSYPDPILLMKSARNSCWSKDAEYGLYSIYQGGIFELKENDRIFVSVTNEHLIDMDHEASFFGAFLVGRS
Sequence of MUC16-targeted mesothelin-TR3 fusion protein (Meso-TR3) (human) (chain, as listed by the source limits assumed, form in doubt): as the sequence (chain) above

fraction of MUC16-positive HeLa cells after Meso-TR3 treatment (flow cytometry) [1]: 54% | fraction of MUC16-positive HeLa cells before Meso-TR3 treatment (flow cytometry) [1]: 80%
Substance: MUC16-targeted mesothelin-TR3 fusion protein (Meso-TR3)
cell death of MUC16-positive OVCAR3 cells at the highest drug dose [1]: 65% | cell killing of OVCAR3 cells by Meso-TR3, highest dose of soluble mesothelin competitor [1]: 40% | cell killing of OVCAR3 cells by Meso-TR3, no competitor [1]: 80%

Substance: soluble death receptor 5 (DR5-Fc) (from UniProt O14763 56-182) (Fc fusion)
cell death of OVCAR3 cells by Meso-TR3 at the highest DR5-Fc concentration [2]: < 10% | cell death of OVCAR3 cells by Meso-TR3 in the absence of DR5-Fc [2]: 90%

percent of cells positive for the FLAG epitope tag [3]: 100%
Substance: soluble, FLAG-tagged human mesothelin (secreted form, GPI signal sequence deleted) (from UniProt Q13421 37-598) (ligand)
